For one molecule, Kd, koff and kon results are on record in patent US20200255543A1 (ROCKEFELLER UNIVERSITY, published 2020).

Test [1] has as its target T1, recombinant human MERTK (human, UniProt Q12866 21-505, limits assumed).
T1 construct: Analyte in solution in biolayer interferometry; also called hMer
T1 sequence: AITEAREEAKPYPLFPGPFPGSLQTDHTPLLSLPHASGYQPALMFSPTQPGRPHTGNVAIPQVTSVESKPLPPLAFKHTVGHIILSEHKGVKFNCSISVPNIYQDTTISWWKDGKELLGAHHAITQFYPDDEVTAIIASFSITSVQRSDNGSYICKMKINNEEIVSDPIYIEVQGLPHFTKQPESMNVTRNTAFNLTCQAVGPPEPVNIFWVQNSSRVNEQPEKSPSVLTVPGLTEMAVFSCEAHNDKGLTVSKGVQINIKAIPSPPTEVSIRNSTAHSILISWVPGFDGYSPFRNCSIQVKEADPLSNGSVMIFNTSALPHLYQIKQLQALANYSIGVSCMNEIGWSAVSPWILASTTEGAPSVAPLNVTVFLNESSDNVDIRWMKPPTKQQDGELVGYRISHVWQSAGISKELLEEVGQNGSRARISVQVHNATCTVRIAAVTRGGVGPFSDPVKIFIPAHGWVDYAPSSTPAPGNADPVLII
Nature of the test: biolayer interferometry, global fit; human MERTK. The method, then: (§1) FIG. 7: M19 binds to human MERTK with high affinity. A diagram showing antibody binding kinetics for M19 (Mer-M19) against human MERTK (hMer) using biolayer interferometry. Purified M19 was loaded on an AMQ sensor at a concentration of 1 microgram/mL to test binding against analytes in solution. All analytes were prepared at 5 nM with a 2-fold dilution series for a total of 7 concentrations. Kinetic fits were calculated using a 1:1 model, with Local fits for each concentration as well as an overall global fit.
Background: In BLI a coated tip is dipped into the sample, and binding shifts an interference pattern.

Test [2] addresses T1, recombinant human MERTK. The test is described as follows: biolayer interferometry, M19 loaded on AMQ sensor, hMer analyte from 5 nM in 2-fold dilutions, 1:1 model, global fit. The method, then:
as §1

Test [3] addresses T1, recombinant human MERTK. The test is described as follows: biolayer interferometry, M19 loaded on AMQ sensor at 1 ug/mL, hMer in solution at 0.3125 nM, local 1:1 fit. As for the experimental part: as §1
(§2) To characterize the binding affinity of M19 antibody against recombinant human and mouse MERTK, biomolecular interaction analysis was performed using biolayer interferometry (FIG. 7 and FIG. 8). Binding was observed between M19 and both mouse and human MERTK.

The target of test [4] is T2, recombinant mouse MERTK (mouse, UniProt Q60805 23-496, limits assumed).
T2 construct: Analyte in solution in biolayer interferometry; also called msMer; murine MERTK
T2 sequence (looked up): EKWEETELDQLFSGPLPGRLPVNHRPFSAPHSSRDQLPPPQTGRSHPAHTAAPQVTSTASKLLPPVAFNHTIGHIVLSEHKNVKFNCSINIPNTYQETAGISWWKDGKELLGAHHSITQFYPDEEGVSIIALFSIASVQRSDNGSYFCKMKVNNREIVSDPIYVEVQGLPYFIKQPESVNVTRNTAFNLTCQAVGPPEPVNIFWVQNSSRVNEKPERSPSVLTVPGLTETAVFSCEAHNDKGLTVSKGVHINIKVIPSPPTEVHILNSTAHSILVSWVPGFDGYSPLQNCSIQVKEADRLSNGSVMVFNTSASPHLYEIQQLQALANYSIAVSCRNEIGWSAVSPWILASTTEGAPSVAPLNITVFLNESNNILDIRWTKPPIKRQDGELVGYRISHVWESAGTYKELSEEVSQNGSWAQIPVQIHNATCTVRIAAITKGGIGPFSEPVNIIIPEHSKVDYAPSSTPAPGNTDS
The test is described as follows: biolayer interferometry, M19 loaded on AMQ sensor at 1 ug/mL, msMer in solution at 0.3125 nM, local 1:1 fit. As for the experimental part: (§3) FIG. 8: M19 binds to murine MERTK with high affinity. A diagram showing antibody binding kinetics for M19 (Mer-M19) against murine MERTK (msMer) using biolayer interferometry. Purified M19 was loaded on an AMQ sensor at a concentration of 1 microgram/mL to test binding against analytes in solution. All analytes were prepared at 5 nM with a 2-fold dilution series for a total of 7 concentrations. Kinetic fits were calculated using a 1:1 model, with Local fits for each concentration as well as an overall Global fit.
as §2

For test [5], the target named is T2, recombinant mouse MERTK. The test is described as follows: biolayer interferometry, M19 loaded on AMQ sensor at 1 ug/mL, msMer in solution at 5 to 0.0781 nM, global 1:1 fit. The method, then:
as §3, §2

In test [6] the target is T2, recombinant mouse MERTK. Nature of the test: biolayer interferometry, global fit; mouse MERTK. As for the experimental part: as §3
The target of test [7] is T2, recombinant mouse MERTK. The test is described as follows: biolayer interferometry, M19 loaded on AMQ sensor, msMer analyte from 5 nM in 2-fold dilutions, 1:1 model, global fit. The method, then:
as §3

For test [8], the target named is T2, recombinant mouse MERTK. The test is described as follows: biolayer interferometry, M19 loaded on AMQ sensor at 1 ug/mL, msMer in solution at 0.1563 nM, local 1:1 fit. As for the experimental part: as §3, §2
The target of test [9] is T1, recombinant human MERTK. The test is described as follows: biolayer interferometry, M19 loaded on AMQ sensor at 1 ug/mL, hMer in solution at 2.5 nM, local 1:1 fit. As for the experimental part: as §1, §2
The target of test [10] is T2, recombinant mouse MERTK. Nature of the test: biolayer interferometry, M19 loaded on AMQ sensor at 1 ug/mL, msMer in solution at 5 nM, local 1:1 fit. The method, then:
as §3, §2

B1: monoclonal antibody M19 (antibody, V domains shown)
VH: EVQLEESGPDLKKPGETVKISCKASNYTFTDYSMHWVKQAPGKGLKWVGWINTDTGEPTYADDFKGRFAFSLETSASTAYLQINNLKNEDTATYFCARWFGAMDYWGQGTSVTVSS
VL: DIVITQSHKFMSTSVGDRVSITCKASQDVTNVVAWYQQKPGQSPKLLIYSASYRYTGVPDRFTGSGSGTDFTFTISSVQAEDLAVYYCQQYYRTPRTFGGGTKLEIKR
notes: Mouse hybridoma monoclonal antibody; Hybridoma supernatant was used in the ELISA screen, purified antibody in biolayer interferometry; also called Mer-M19
As a reminder, the Kd is the equilibrium constant for the complex coming apart. A word on the koff: it is the first-order rate constant of dissociation. As usually defined, the kon is the rate constant with which the complex forms. Turning to B1, the Kd was ~0.3 nM in the test with recombinant human MERTK [1]; 0.326 nM in the test with recombinant human MERTK [2]; 0.128 nM with recombinant human MERTK [3]; 0.115 nM with recombinant mouse MERTK [4]; ~0.3 nM with recombinant mouse MERTK [6]; 0.305 nM with recombinant mouse MERTK [7]. Also, the dissociation constant Kd amounted to 0.117 nM with recombinant mouse MERTK [8], 0.339 nM with recombinant human MERTK [9] and 0.354 nM with recombinant mouse MERTK [10]. For the same molecule, the koff amounted to 0.000968 s⁻¹ with recombinant human MERTK [3]; 0.00106 s⁻¹ with recombinant mouse MERTK [4]; 0.00144 s⁻¹ with recombinant mouse MERTK [5]; 0.00129 s⁻¹ with recombinant mouse MERTK [8]; 0.000899 s⁻¹ with recombinant human MERTK [9]; 0.00133 s⁻¹ with recombinant mouse MERTK [10]. Also, the kon worked out at 7.57e+06 M⁻¹ s⁻¹ in the test with recombinant human MERTK [3]; 9.23e+06 M⁻¹ s⁻¹ with recombinant mouse MERTK [4]; 4.71e+06 M⁻¹ s⁻¹ with recombinant mouse MERTK [5]; 1.1e+07 M⁻¹ s⁻¹ in the test with recombinant mouse MERTK [8]; 2.65e+06 M⁻¹ s⁻¹ with recombinant human MERTK [9]; 3.77e+06 M⁻¹ s⁻¹ with recombinant mouse MERTK [10].
